Publication PMC10786891, “Massively parallel profiling of RNA-targeting CRISPR-Cas13d”
Substitutions are numbered along the chain they refer to. In names and notes the source's numbering stands.

Molecular target: T1, EsCas13d, nuclease-dead (Eubacterium siraeum, UniProt B0MS50, R295A;H300A;R849A;H854A)
T1 sequence: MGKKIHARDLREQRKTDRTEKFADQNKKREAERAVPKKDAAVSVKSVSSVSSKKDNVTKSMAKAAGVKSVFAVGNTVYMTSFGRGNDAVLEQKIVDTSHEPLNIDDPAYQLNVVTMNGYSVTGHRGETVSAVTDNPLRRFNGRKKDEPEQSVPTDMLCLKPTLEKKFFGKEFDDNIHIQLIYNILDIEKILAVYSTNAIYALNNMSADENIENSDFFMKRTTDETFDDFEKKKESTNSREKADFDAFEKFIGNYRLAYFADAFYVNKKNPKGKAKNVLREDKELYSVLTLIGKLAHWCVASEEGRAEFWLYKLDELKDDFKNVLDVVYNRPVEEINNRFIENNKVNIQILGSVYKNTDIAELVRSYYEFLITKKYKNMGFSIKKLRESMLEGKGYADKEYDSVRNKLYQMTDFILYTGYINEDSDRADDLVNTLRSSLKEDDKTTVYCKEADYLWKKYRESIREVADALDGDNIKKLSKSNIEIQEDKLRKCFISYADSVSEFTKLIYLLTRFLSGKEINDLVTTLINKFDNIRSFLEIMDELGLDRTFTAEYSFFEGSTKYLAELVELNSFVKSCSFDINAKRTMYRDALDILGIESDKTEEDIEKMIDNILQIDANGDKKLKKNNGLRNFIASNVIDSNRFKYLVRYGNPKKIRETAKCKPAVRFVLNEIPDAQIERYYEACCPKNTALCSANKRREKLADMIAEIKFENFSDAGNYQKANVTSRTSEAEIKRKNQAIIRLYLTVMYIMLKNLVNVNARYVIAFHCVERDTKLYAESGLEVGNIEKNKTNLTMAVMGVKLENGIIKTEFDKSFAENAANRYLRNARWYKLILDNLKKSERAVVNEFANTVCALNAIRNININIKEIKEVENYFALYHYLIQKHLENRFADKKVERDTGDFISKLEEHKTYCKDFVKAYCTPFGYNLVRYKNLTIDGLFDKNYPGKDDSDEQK
Experiment: crRNA (strand 1, pre-loaded); Mg2+; 40 mM Tris-HCl pH 7.5, 150 mM NaCl, 6 mM MgCl2, 1 mM DTT, 0.1% Tween-20, 0.2 mg/ml BSA; 25 C; 10 min per concentration, then washed
Conditions: tags: His6-TwinStrep-SUMO cleaved; N-terminal SNAP kept (SNAP-Surface 488); label: 3' end held by stalled T7 RNA polymerase

B1: target 2 MT 5'PFS UCU 3'PFS CUC (mixed)
RNA 1: CACCCGUGCAAAAUUGCAGGGGUCUAAAACCUUCUCCAAAUUGUUUCAUCCU
RNA 2: GGGAAUGGAUCCACAUCUACGAAUUCUCUAGGAUGAAACAAUUUGGAGAAGCUCAGAUCGGAAGAGCACACGU
- Kd: 9.3 ± 1.6 nM

B2: target 2 MT 5'PFS AUG 3'PFS AGA (mixed)
RNA 1: B1 RNA 1
RNA 2: B1 RNA 2 with U27A, C28U, U29G, C52A, U53G, C54A
- Kd: 15 ± 5 nM

B3: target 2 MT 5'PFS UCG 3'PFS CGC (mixed)
RNA 1: B1 RNA 1
RNA 2: B1 RNA 2 with U29G, U53G
- Kd: 30 ± 6 nM

B4: target 2 MT 5'PFS AAA 3'PFS AUA (mixed)
RNA 1: B1 RNA 1
RNA 2: B1 RNA 2 with U27A, C28A, U29A, C52A, C54A
- Kd: 4.4 ± 1 nM

B5: target 2 MT 5'PFS UAC 3'PFS CAC (mixed)
RNA 1: B1 RNA 1
RNA 2: B1 RNA 2 with C28A, U29C, U53A
- Kd: 5.3 ± 1 nM

B6: target 2 MT 5'PFS UAG 3'PFS UUA (mixed)
RNA 1: B1 RNA 1
RNA 2: B1 RNA 2 with C28A, U29G, C52U, C54A
- Kd: 8.1 ± 1.6 nM

B7: target 2 MT 5'PFS GCA 3'PFS ACG (mixed)
RNA 1: B1 RNA 1
RNA 2: B1 RNA 2 with U27G, U29A, C52A, U53C, C54G
- Kd: 13.3 ± 2 nM

B8: target 2 MT 5'PFS UAC 3'PFS CAA (mixed)
RNA 1: B1 RNA 1
RNA 2: B1 RNA 2 with C28A, U29C, U53A, C54A
- Kd: 6 ± 1.1 nM

B9: target 2 MT 5'PFS CUG 3'PFS AAA (mixed)
RNA 1: B1 RNA 1
RNA 2: B1 RNA 2 with U27C, C28U, U29G, C52A, U53A, C54A
- Kd: 2.9 ± 0.32 nM

B10: target 2 MT 5'PFS UAC 3'PFS CAG (mixed)
RNA 1: B1 RNA 1
RNA 2: B1 RNA 2 with C28A, U29C, U53A, C54G
- Kd: 8.5 ± 3 nM

B11: target 2 MT 5'PFS AAC 3'PFS CUG (mixed)
RNA 1: B1 RNA 1
RNA 2: B1 RNA 2 with U27A, C28A, U29C, C54G
- Kd: 7.3 ± 1.3 nM

B12: target 2 MT 5'PFS CUG 3'PFS AAG (mixed)
RNA 1: B1 RNA 1
RNA 2: B1 RNA 2 with U27C, C28U, U29G, C52A, U53A, C54G
- Kd: 3 ± 0.4 nM

B13: target 2 MT 5'PFS GUU 3'PFS CGC (mixed)
RNA 1: B1 RNA 1
RNA 2: B1 RNA 2 with U27G, C28U, U53G
- Kd: 11.4 ± 0.7 nM

B14: target 2 MT 5'PFS UCG 3'PFS CGG (mixed)
RNA 1: B1 RNA 1
RNA 2: B1 RNA 2 with U29G, U53G, C54G
- Kd: 55 ± 16 nM

B15: target 2 MT 5'PFS UAC 3'PFS CAU (mixed)
RNA 1: B1 RNA 1
RNA 2: B1 RNA 2 with C28A, U29C, U53A, C54U
- Kd: 10 ± 2.3 nM

B16: target 2 MT 5'PFS AAC 3'PFS CUU (mixed)
RNA 1: B1 RNA 1
RNA 2: B1 RNA 2 with U27A, C28A, U29C, C54U
- Kd: 9.1 ± 2.7 nM

B17: target 2 MT 5'PFS AUG 3'PFS AGU (mixed)
RNA 1: B1 RNA 1
RNA 2: B1 RNA 2 with U27A, C28U, U29G, C52A, U53G, C54U
- Kd: 11.1 ± 1.6 nM

B18: target 2 MT 5'PFS CGC 3'PFS AAG (mixed)
RNA 1: B1 RNA 1
RNA 2: B1 RNA 2 with U27C, C28G, U29C, C52A, U53A, C54G
- Kd: 4 ± 0.6 nM

B19: target 2 MT 5'PFS AAC 3'PFS CUC (mixed)
RNA 1: B1 RNA 1
RNA 2: B1 RNA 2 with U27A, C28A, U29C
- Kd: 9 ± 3 nM

B20: target 2 MT 5'PFS UCU 3'PFS CUU (mixed)
RNA 1: B1 RNA 1
RNA 2: B1 RNA 2 with C54U
- Kd: 14.1 ± 2.5 nM

B21: target 2 MT 5'PFS UCG 3'PFS CGA (mixed)
RNA 1: B1 RNA 1
RNA 2: B1 RNA 2 with U29G, U53G, C54A
- Kd: 33 ± 15 nM

B22: target 2 MT 5'PFS AUU 3'PFS CCG (mixed)
RNA 1: B1 RNA 1
RNA 2: B1 RNA 2 with U27A, C28U, U53C, C54G
- Kd: 9.8 ± 1.1 nM

B23: target 2 MT 5'PFS CGC 3'PFS AAC (mixed)
RNA 1: B1 RNA 1
RNA 2: B1 RNA 2 with U27C, C28G, U29C, C52A, U53A
- Kd: 4.9 ± 0.5 nM

B24: target 2 MT 5'PFS CGC 3'PFS AAA (mixed)
RNA 1: B1 RNA 1
RNA 2: B1 RNA 2 with U27C, C28G, U29C, C52A, U53A, C54A
- Kd: 5.8 ± 1.6 nM

B25: target 2 MT 5'PFS GUG 3'PFS UAU (mixed)
RNA 1: B1 RNA 1
RNA 2: B1 RNA 2 with U27G, C28U, U29G, C52U, U53A, C54U
- Kd: 9.5 ± 0.7 nM

B26: target 2 MT 5'PFS CUG 3'PFS AAU (mixed)
RNA 1: B1 RNA 1
RNA 2: B1 RNA 2 with U27C, C28U, U29G, C52A, U53A, C54U
- Kd: 3.6 ± 0.5 nM

B27: target 2 MT 5'PFS GCG 3'PFS AAU (mixed)
RNA 1: B1 RNA 1
RNA 2: B1 RNA 2 with U27G, U29G, C52A, U53A, C54U
- Kd: 8.4 ± 1.3 nM

B28: target 2 MT 5'PFS UAG 3'PFS UUC (mixed)
RNA 1: B1 RNA 1
RNA 2: B1 RNA 2 with C28A, U29G, C52U
- Kd: 7.2 ± 0.9 nM

B29: target 2 MT 5'PFS GGC 3'PFS UAG (mixed)
RNA 1: B1 RNA 1
RNA 2: B1 RNA 2 with U27G, C28G, U29C, C52U, U53A, C54G
- Kd: 13.1 ± 2 nM

B30: target 2 MT 5'PFS GCA 3'PFS ACA (mixed)
RNA 1: B1 RNA 1
RNA 2: B1 RNA 2 with U27G, U29A, C52A, U53C, C54A
- Kd: 10.2 ± 1.7 nM

B31: target 2 MT 5'PFS GCA 3'PFS ACC (mixed)
RNA 1: B1 RNA 1
RNA 2: B1 RNA 2 with U27G, U29A, C52A, U53C
- Kd: ~36 nM

B32: target 2 MT 5'PFS AAG 3'PFS UUA (mixed)
RNA 1: B1 RNA 1
RNA 2: B1 RNA 2 with U27A, C28A, U29G, C52U, C54A
- Kd: 6.8 ± 1.3 nM

B33: target 2 MT 5'PFS AUU 3'PFS CCA (mixed)
RNA 1: B1 RNA 1
RNA 2: B1 RNA 2 with U27A, C28U, U53C, C54A
- Kd: 14.8 ± 2.7 nM

B34: target 2 MT 5'PFS CUG 3'PFS AAC (mixed)
RNA 1: B1 RNA 1
RNA 2: B1 RNA 2 with U27C, C28U, U29G, C52A, U53A
- Kd: 3.4 ± 0.4 nM

B35: target 1 C2U,U10A (mixed)
RNA 1: CACCCGUGCAAAAAUGCAGGGGUCUAAAACUGAGCGGAUAACCUCUCUAUGG
RNA 2: GGGAAUGGAUCCACAUCUACGAAUUCGUACCAUAGAGAGGUAAUCCGCUUACCGAGAUCGGAAGAGCACACGU
- Kd: 11.6 ± 1.4 nM

B36: target 1 G13U,A16C (mixed)
RNA 1: B35 RNA 1
RNA 2: B35 RNA 2 with A36C, G39U, A42U, U50C
- Kd: 68 ± 14 nM

B37: target 1 C2A,C21U (mixed)
RNA 1: B35 RNA 1
RNA 2: B35 RNA 2 with C31U, A42U, U50A
- Kd: 8.2 ± 0.5 nM

B38: target 1 insA 3' of 12,insA 3' of 4 (mixed)
RNA 1: B35 RNA 1
RNA 2: GGGAAUGGAUCCACAUCUACGAAUUCGUACCAUAGAGAGGAUUAUCCGCAUCACCGAGAUCGGAAGAGCACACGU
- Kd: 19.2 ± 1.2 nM
